Reference: the supplement of paper PMC10065799, “High-throughput profiling of sequence recognition by tyrosine kinases and SH2 domains using bacterial peptide display” (eLife, 2023)

What follows are sequences tested against c-Src SH2 (assay: SH2 binding enrichment of the phosphorylated peptide, bacterial display (enrichment ratio); higher = better substrate or ligand; peptides without Tyr show the background).
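Throughout, for SH2 binding enrichment of the phosphorylated peptide, bacterial display: peptide library displayed on the E. coli surface as eCPX fusions, selected cells deep-sequenced, score is each peptide's frequency after selection divided by its frequency in the input.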
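Throughout, for phosphorylation enrichment, bacterial display: 11-residue human phosphosite peptides and single-mutation variants displayed on the E. coli surface, counted by deep sequencing, each peptide's frequency after selection divided by its frequency in the unselected input library; frequency after pTyr selection over input frequency; kinase dosed for 20-30% of maximal phosphorylation in three min.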

Row | Sequence | SH2 binding enrichment
1 | HSGIFYKPESL [L2HGDH_Y103_YF] | 0.507
2 | LNCDRYSVGLL [PDE6A_Y275] | 0.588
3 | KVPELYEIHKE [BCR_Y554] | 0.701
4 | WEQELYSQLVY [WAS_Y102] | 0.811
5 | RVLQLYGCSPS [ASTL_Y279_K277Q] | 0.493
6 | ADSLRYIFPKL [EIF2B3_Y92_YF] | 0.667
7 | IVEYAYNDKAV [PUM3_Y259_I264V] | 0.719
8 | YPLELYERVRI [PRKCG_Y312_M317I] | 1.03
9 | FDNSVYQKTTE [LDLR_Y828_P826S] | 0.768
10 | SVFNNYIQTLG [CTNND1_Y174_S171F] | 0.739
11 | DAKAIYDFTDT [PDK1_Y136] | 0.604
12 | TIMTNYNPNYC [ALK_Y1092_D1091N] | 0.591
13 | TEYSQYMRRKN [MAX_Y73_I71S] | 0.397
14 | HLWRIYYDITD [MMP27_Y307] | 0.941
15 | MKKQKYGRIIM [HSD17B4_Y143] | 1.54
16 | PPEFSYGLQTQ [SRA1_Y35_Q32E] | 0.601

The sequences below were run against Grb2 SH2 (UniProt P62993) in the same assay as above.
Chain of Grb2 SH2 (P62993 whole entry, looked up): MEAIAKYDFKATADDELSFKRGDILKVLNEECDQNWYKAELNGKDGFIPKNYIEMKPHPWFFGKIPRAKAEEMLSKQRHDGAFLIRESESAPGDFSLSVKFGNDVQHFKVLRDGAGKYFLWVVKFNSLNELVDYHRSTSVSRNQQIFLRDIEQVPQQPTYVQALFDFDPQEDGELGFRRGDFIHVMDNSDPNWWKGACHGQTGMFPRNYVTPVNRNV

Row | Sequence | SH2 binding enrichment
17 | HSGIFYKPESL [L2HGDH_Y103_YF] | 0.641
18 | LNCDRYSVGLL [PDE6A_Y275] | 0.873
19 | KVPELYEIHKE [BCR_Y554] | 0.996
20 | WEQELYSQLVY [WAS_Y102] | 0.98
21 | RVLQLYGCSPS [ASTL_Y279_K277Q] | 0.853
22 | ADSLRYIFPKL [EIF2B3_Y92_YF] | 0.966
23 | IVEYAYNDKAV [PUM3_Y259_I264V] | 0.927
24 | YPLELYERVRI [PRKCG_Y312_M317I] | 0.974
25 | FDNSVYQKTTE [LDLR_Y828_P826S] | 0.808
26 | SVFNNYIQTLG [CTNND1_Y174_S171F] | 1.05
27 | DAKAIYDFTDT [PDK1_Y136] | 0.896
28 | TIMTNYNPNYC [ALK_Y1092_D1091N] | 1.12
29 | TEYSQYMRRKN [MAX_Y73_I71S] | 0.653
30 | HLWRIYYDITD [MMP27_Y307] | 0.869
31 | MKKQKYGRIIM [HSD17B4_Y143] | 1.91
32 | PPEFSYGLQTQ [SRA1_Y35_Q32E] | 1.06

What follows are sequences tested against SHP2-C SH2 in the same assay as above.

Row | Sequence | SH2 binding enrichment
33 | HSGIFYKPESL [L2HGDH_Y103_YF] | 0.831
34 | LNCDRYSVGLL [PDE6A_Y275] | 0.527
35 | KVPELYEIHKE [BCR_Y554] | 0.751
36 | WEQELYSQLVY [WAS_Y102] | 0.589
37 | RVLQLYGCSPS [ASTL_Y279_K277Q] | 0.727
38 | ADSLRYIFPKL [EIF2B3_Y92_YF] | 1.41
39 | IVEYAYNDKAV [PUM3_Y259_I264V] | 0.881
40 | YPLELYERVRI [PRKCG_Y312_M317I] | 0.736
41 | FDNSVYQKTTE [LDLR_Y828_P826S] | 0.559
42 | SVFNNYIQTLG [CTNND1_Y174_S171F] | 0.917
43 | DAKAIYDFTDT [PDK1_Y136] | 0.6
44 | TIMTNYNPNYC [ALK_Y1092_D1091N] | 0.715
45 | TEYSQYMRRKN [MAX_Y73_I71S] | 0.411
46 | HLWRIYYDITD [MMP27_Y307] | 1.01
47 | MKKQKYGRIIM [HSD17B4_Y143] | 1.55
48 | PPEFSYGLQTQ [SRA1_Y35_Q32E] | 0.601

What follows are sequences tested against EPHB1 (UniProt P54762) (assay: phosphorylation enrichment, bacterial display (enrichment ratio); higher = better substrate or ligand; peptides without Tyr show the background).
Chain of EPHB1 (P54762 whole entry, looked up): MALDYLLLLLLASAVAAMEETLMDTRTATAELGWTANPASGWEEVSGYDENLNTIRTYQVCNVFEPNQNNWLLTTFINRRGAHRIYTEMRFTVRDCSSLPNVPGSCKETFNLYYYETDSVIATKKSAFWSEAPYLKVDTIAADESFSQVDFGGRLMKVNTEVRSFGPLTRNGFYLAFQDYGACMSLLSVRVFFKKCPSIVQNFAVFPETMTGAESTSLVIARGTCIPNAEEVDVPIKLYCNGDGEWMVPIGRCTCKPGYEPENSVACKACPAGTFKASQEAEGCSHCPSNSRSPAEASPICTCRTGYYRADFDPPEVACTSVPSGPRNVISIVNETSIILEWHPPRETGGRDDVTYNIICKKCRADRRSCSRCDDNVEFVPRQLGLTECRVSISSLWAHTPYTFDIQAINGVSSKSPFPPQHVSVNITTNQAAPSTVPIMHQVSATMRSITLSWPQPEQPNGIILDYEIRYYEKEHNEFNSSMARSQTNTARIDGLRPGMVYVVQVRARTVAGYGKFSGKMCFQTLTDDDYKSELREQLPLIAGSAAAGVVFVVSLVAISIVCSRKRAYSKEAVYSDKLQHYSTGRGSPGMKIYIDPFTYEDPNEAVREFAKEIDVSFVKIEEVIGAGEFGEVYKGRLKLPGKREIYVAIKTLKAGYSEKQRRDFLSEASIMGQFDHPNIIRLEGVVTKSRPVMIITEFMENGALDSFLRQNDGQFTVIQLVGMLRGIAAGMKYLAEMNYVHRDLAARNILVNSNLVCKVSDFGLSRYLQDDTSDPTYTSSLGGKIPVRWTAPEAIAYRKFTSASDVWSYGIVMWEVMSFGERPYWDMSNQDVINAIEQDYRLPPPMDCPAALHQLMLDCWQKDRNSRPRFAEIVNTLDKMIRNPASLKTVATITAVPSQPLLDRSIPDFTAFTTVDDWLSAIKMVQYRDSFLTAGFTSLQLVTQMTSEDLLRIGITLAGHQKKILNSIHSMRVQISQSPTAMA

Row | Sequence | phosphorylation enrichment
49 | HSGIFYKPESL [L2HGDH_Y103_YF] | 0.793
50 | LNCDRYSVGLL [PDE6A_Y275] | 0.961
51 | KVPELYEIHKE [BCR_Y554] | 0.93
52 | WEQELYSQLVY [WAS_Y102] | 11.8
53 | RVLQLYGCSPS [ASTL_Y279_K277Q] | 1.3
54 | ADSLRYIFPKL [EIF2B3_Y92_YF] | 0.43
55 | IVEYAYNDKAV [PUM3_Y259_I264V] | 0.669
56 | YPLELYERVRI [PRKCG_Y312_M317I] | 1.9
57 | FDNSVYQKTTE [LDLR_Y828_P826S] | 0.487
58 | SVFNNYIQTLG [CTNND1_Y174_S171F] | 0.835
59 | DAKAIYDFTDT [PDK1_Y136] | 1.43
60 | TIMTNYNPNYC [ALK_Y1092_D1091N] | 0.619
61 | TEYSQYMRRKN [MAX_Y73_I71S] | 0.476
62 | HLWRIYYDITD [MMP27_Y307] | 9.72
63 | MKKQKYGRIIM [HSD17B4_Y143] | 0.551
64 | PPEFSYGLQTQ [SRA1_Y35_Q32E] | 0.565

These sequences were tested against FGFR1 (UniProt P11362) in the same assay as above.
Chain of FGFR1 (P11362 whole entry, looked up): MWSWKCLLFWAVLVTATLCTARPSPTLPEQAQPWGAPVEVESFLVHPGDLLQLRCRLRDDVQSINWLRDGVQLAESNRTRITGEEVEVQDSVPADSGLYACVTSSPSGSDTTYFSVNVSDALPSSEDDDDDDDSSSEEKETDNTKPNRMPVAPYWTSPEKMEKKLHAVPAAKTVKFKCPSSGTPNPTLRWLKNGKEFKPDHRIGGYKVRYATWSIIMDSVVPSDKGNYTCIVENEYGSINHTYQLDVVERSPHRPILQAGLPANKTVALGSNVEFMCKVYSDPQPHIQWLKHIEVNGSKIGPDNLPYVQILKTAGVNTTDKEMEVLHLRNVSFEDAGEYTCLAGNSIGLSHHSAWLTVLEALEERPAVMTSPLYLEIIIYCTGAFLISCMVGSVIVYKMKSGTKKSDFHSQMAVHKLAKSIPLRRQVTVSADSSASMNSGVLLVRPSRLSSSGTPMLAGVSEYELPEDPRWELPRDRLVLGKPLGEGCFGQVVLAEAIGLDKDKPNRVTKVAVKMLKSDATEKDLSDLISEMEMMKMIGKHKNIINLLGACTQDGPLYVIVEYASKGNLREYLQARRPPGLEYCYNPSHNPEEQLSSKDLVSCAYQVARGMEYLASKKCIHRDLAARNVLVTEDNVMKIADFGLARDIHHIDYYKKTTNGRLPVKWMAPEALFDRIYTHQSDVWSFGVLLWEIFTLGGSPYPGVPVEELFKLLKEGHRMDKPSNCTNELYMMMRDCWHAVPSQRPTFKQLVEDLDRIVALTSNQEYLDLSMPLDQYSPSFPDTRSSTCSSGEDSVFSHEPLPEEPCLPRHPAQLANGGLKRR

Row | Sequence | phosphorylation enrichment
65 | HSGIFYKPESL [L2HGDH_Y103_YF] | 1.11
66 | LNCDRYSVGLL [PDE6A_Y275] | 0.712
67 | KVPELYEIHKE [BCR_Y554] | 0.593
68 | WEQELYSQLVY [WAS_Y102] | 8.38
69 | RVLQLYGCSPS [ASTL_Y279_K277Q] | 1.06
70 | ADSLRYIFPKL [EIF2B3_Y92_YF] | 0.398
71 | IVEYAYNDKAV [PUM3_Y259_I264V] | 0.52
72 | YPLELYERVRI [PRKCG_Y312_M317I] | 0.459
73 | FDNSVYQKTTE [LDLR_Y828_P826S] | 0.51
74 | SVFNNYIQTLG [CTNND1_Y174_S171F] | 0.585
75 | DAKAIYDFTDT [PDK1_Y136] | 0.604
76 | TIMTNYNPNYC [ALK_Y1092_D1091N] | 0.545
77 | TEYSQYMRRKN [MAX_Y73_I71S] | 0.548
78 | HLWRIYYDITD [MMP27_Y307] | 4.63
79 | MKKQKYGRIIM [HSD17B4_Y143] | 0.517
80 | PPEFSYGLQTQ [SRA1_Y35_Q32E] | 0.568

What follows are sequences tested against EPHB2 (UniProt P29323) in the same assay as above.
Chain of EPHB2 (P29323 whole entry, looked up): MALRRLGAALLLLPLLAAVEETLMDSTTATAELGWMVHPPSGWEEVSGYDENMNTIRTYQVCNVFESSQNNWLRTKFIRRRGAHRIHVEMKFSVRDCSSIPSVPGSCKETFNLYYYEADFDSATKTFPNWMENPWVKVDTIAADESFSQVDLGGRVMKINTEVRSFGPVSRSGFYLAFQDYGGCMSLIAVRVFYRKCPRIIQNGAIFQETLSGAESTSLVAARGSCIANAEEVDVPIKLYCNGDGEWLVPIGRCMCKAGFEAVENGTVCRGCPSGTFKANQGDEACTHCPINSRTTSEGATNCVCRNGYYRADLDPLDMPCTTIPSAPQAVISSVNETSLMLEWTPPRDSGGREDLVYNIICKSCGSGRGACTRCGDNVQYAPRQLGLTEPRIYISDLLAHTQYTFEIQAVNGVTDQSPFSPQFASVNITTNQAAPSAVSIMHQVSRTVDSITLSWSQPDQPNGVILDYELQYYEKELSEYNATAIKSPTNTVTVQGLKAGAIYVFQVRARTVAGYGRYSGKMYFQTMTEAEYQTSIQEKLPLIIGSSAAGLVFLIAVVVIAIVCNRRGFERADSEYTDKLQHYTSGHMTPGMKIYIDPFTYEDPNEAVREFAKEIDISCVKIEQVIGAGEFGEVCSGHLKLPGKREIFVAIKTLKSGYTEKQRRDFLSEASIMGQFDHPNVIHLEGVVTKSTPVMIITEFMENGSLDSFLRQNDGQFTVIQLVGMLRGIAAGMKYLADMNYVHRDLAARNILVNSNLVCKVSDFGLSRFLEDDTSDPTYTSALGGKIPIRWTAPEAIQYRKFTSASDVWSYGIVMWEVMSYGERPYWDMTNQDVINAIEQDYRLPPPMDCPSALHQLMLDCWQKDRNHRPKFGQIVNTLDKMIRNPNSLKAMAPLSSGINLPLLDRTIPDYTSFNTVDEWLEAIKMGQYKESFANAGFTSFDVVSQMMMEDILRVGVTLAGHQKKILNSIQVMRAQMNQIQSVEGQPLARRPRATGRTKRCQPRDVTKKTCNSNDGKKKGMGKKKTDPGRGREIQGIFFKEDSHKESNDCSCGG

Row | Sequence | phosphorylation enrichment
81 | HSGIFYKPESL [L2HGDH_Y103_YF] | 1.11
82 | LNCDRYSVGLL [PDE6A_Y275] | 1.51
83 | KVPELYEIHKE [BCR_Y554] | 0.868
84 | WEQELYSQLVY [WAS_Y102] | 16
85 | RVLQLYGCSPS [ASTL_Y279_K277Q] | 1.71
86 | ADSLRYIFPKL [EIF2B3_Y92_YF] | 0.381
87 | IVEYAYNDKAV [PUM3_Y259_I264V] | 0.418
88 | YPLELYERVRI [PRKCG_Y312_M317I] | 1.23
89 | FDNSVYQKTTE [LDLR_Y828_P826S] | 0.488
90 | SVFNNYIQTLG [CTNND1_Y174_S171F] | 0.418
91 | DAKAIYDFTDT [PDK1_Y136] | 1.85
92 | TIMTNYNPNYC [ALK_Y1092_D1091N] | 0.5
93 | TEYSQYMRRKN [MAX_Y73_I71S] | 0.563
94 | HLWRIYYDITD [MMP27_Y307] | 4.96
95 | MKKQKYGRIIM [HSD17B4_Y143] | 0.531
96 | PPEFSYGLQTQ [SRA1_Y35_Q32E] | 0.802

The sequences below were run against FGFR3 (UniProt P22607) in the same assay as above.
Chain of FGFR3 (P22607 whole entry, looked up): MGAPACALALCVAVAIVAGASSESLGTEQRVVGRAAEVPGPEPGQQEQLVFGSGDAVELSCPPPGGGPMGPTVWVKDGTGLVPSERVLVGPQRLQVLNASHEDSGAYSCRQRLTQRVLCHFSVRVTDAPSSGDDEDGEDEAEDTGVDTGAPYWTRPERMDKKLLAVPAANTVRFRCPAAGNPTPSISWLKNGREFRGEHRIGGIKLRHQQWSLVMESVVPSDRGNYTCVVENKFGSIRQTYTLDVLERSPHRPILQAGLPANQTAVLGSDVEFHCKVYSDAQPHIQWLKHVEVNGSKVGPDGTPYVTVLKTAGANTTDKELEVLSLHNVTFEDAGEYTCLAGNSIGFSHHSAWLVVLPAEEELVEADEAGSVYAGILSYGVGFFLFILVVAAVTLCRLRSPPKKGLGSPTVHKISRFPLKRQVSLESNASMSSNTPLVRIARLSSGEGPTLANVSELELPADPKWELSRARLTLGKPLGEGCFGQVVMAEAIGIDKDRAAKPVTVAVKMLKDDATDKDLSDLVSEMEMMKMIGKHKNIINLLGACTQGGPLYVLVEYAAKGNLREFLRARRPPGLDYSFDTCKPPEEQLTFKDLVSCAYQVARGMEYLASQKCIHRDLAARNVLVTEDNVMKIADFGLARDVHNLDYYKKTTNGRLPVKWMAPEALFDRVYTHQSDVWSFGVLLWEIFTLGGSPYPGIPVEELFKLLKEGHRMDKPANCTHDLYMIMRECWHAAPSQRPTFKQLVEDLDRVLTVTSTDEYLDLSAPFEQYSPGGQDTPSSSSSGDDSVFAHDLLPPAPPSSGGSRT

Row | Sequence | phosphorylation enrichment
97 | HSGIFYKPESL [L2HGDH_Y103_YF] | 0.934
98 | LNCDRYSVGLL [PDE6A_Y275] | 1.2
99 | KVPELYEIHKE [BCR_Y554] | 0.817
100 | WEQELYSQLVY [WAS_Y102] | 7.23
101 | RVLQLYGCSPS [ASTL_Y279_K277Q] | 1.26
102 | ADSLRYIFPKL [EIF2B3_Y92_YF] | 0.497
103 | IVEYAYNDKAV [PUM3_Y259_I264V] | 0.673
104 | YPLELYERVRI [PRKCG_Y312_M317I] | 0.56
105 | FDNSVYQKTTE [LDLR_Y828_P826S] | 0.641
106 | SVFNNYIQTLG [CTNND1_Y174_S171F] | 0.528
107 | DAKAIYDFTDT [PDK1_Y136] | 0.665
108 | TIMTNYNPNYC [ALK_Y1092_D1091N] | 0.549
109 | TEYSQYMRRKN [MAX_Y73_I71S] | 0.508
110 | HLWRIYYDITD [MMP27_Y307] | 3.87
111 | MKKQKYGRIIM [HSD17B4_Y143] | 0.971
112 | PPEFSYGLQTQ [SRA1_Y35_Q32E] | 0.772

Each sequence was assayed against Fes (UniProt P07332) in the same assay as above.
Chain of Fes (P07332 whole entry, looked up): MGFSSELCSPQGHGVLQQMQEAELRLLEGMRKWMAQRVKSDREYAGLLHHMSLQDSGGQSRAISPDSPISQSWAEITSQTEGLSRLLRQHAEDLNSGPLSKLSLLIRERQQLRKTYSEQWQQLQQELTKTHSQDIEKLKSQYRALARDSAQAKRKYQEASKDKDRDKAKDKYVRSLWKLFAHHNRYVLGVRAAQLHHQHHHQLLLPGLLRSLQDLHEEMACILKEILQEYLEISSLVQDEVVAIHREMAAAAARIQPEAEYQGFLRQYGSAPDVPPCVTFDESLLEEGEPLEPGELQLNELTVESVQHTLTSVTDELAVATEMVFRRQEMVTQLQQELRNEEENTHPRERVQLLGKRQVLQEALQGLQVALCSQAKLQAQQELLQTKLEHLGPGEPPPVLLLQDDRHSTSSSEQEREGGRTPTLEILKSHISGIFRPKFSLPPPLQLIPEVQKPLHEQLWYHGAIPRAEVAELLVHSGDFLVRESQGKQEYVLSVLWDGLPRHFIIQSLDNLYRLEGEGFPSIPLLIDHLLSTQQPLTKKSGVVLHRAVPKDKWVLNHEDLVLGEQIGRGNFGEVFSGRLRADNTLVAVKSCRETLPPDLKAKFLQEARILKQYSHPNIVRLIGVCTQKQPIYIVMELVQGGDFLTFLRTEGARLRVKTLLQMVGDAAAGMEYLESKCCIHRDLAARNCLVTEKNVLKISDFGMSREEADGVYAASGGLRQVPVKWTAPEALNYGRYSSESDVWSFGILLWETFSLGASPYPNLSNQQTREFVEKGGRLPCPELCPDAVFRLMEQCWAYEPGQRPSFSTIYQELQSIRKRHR

Row | Sequence | phosphorylation enrichment
113 | HSGIFYKPESL [L2HGDH_Y103_YF] | 1.82
114 | LNCDRYSVGLL [PDE6A_Y275] | 1.59
115 | KVPELYEIHKE [BCR_Y554] | 1.08
116 | WEQELYSQLVY [WAS_Y102] | 2.69
117 | RVLQLYGCSPS [ASTL_Y279_K277Q] | 1.72
118 | ADSLRYIFPKL [EIF2B3_Y92_YF] | 0.681
119 | IVEYAYNDKAV [PUM3_Y259_I264V] | 1.1
120 | YPLELYERVRI [PRKCG_Y312_M317I] | 1.01
121 | FDNSVYQKTTE [LDLR_Y828_P826S] | 0.913
122 | SVFNNYIQTLG [CTNND1_Y174_S171F] | 0.678
123 | DAKAIYDFTDT [PDK1_Y136] | 1.15
124 | TIMTNYNPNYC [ALK_Y1092_D1091N] | 0.901
125 | TEYSQYMRRKN [MAX_Y73_I71S] | 0.622
126 | HLWRIYYDITD [MMP27_Y307] | 3.16
127 | MKKQKYGRIIM [HSD17B4_Y143] | 0.89
128 | PPEFSYGLQTQ [SRA1_Y35_Q32E] | 1.09
